Square brackets hold non-standard residues; d marks the D form. Ends that are not written are not given here. Hyp = O=C(O)[C@@H]1C[C@@H](O)CN1

The results in this text go back to paper PMC5383425, “Differential CLE peptide perception by plant receptors implicated from structural and functional analyses of TDIF-TDR interactions” (PLoS ONE, 2017).

What all share (assay): ITC; 0.5–1 mM peptide titrated into 10–40 μM ecdTDR; 25°C; 10 mM sodium citrate, 100 mM NaCl, pH 5.5; fitted to one set of binding sites; MicroCal Auto-iTC200
What all share (conditions): both partners purified
On the technique in general: In ITC the heat of successive injections is recorded.

In one assay the target is T1, ecdTDR W353A mutant (Arabidopsis thaliana, UniProt Q9FII5 30-642, W353A).
T1 construct: TDR/PXY of A. thaliana, extracellular domain, residues 30-642; source: High Five insect cells (baculovirus), secreted, purified as the wild type (Ni-NTA, size-exclusion chromatography)
T1 sequence (looked up): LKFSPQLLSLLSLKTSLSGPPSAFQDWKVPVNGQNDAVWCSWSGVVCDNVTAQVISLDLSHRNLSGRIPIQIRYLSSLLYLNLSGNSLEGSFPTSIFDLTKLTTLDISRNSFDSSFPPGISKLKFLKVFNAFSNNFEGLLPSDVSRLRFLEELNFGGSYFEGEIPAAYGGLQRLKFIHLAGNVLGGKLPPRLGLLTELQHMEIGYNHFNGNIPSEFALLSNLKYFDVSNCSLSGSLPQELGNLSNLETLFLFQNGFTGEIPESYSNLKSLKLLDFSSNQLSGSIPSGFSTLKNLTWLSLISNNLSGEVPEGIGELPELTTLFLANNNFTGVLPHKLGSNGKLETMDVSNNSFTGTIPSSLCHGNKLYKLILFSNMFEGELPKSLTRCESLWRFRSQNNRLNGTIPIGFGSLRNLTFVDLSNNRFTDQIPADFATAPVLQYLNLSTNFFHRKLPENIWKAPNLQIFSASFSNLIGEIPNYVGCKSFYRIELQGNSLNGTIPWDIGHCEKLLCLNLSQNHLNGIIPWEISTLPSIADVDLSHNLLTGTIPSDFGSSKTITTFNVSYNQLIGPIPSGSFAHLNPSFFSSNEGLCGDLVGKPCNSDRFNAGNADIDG

In another assay the target is T2, ecdTDR W325A mutant (Arabidopsis thaliana, UniProt Q9FII5 30-642, single alanine substitution of W325).
T2 construct: TDR/PXY of A. thaliana, extracellular domain, residues 30-642; also called single alanine substitution of W325; source: High Five insect cells (baculovirus), secreted, purified as the wild type (Ni-NTA, size-exclusion chromatography)
T2 sequence (looked up): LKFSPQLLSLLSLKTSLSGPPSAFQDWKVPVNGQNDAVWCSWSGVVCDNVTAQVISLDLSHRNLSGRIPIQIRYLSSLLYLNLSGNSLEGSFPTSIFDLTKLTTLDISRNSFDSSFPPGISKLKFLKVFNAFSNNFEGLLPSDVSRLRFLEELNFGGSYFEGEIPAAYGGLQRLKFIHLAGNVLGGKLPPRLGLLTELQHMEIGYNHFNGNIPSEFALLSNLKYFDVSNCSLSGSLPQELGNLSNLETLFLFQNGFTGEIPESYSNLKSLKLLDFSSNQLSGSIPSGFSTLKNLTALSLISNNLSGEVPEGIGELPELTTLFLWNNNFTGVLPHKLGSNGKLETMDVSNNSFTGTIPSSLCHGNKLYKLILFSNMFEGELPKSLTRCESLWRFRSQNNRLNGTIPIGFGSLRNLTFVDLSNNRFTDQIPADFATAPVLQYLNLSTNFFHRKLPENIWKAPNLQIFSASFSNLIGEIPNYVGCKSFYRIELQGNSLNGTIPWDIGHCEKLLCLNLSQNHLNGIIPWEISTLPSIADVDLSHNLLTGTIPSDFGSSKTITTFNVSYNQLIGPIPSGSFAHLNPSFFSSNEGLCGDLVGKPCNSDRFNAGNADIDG

The next assay has as its target T3, ecdTDR S187A mutant (Arabidopsis thaliana, UniProt Q9FII5 30-642, S187A).
T3 construct: TDR/PXY of A. thaliana, extracellular domain, residues 30-642; source: High Five insect cells (baculovirus), secreted, purified as the wild type (Ni-NTA, size-exclusion chromatography)
T3 sequence (looked up): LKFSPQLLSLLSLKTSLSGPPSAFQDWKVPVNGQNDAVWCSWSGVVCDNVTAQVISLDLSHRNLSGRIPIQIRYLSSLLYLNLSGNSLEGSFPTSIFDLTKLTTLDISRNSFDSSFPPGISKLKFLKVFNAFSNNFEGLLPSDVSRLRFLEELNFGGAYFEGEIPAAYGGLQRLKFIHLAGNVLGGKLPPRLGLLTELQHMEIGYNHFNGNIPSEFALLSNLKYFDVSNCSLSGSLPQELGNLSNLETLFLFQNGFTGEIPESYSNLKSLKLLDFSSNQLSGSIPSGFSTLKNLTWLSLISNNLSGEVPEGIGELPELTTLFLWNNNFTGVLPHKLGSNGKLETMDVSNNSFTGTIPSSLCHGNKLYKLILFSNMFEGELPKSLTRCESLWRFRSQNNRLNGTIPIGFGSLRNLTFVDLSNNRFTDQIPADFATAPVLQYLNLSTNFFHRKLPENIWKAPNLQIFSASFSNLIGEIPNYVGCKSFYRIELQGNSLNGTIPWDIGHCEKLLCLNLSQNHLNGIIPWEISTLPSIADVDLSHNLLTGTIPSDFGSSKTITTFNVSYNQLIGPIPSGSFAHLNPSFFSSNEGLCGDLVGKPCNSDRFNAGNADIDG

B1: Tracheary Element Differentiation Inhibitory Factor (TDIF) peptide (peptide)
peptide: HEV[Hyp]SG[Hyp]NPISN
notes: TDIF, the 12-residue CLE peptide processed from CLE41 and CLE44 of A. thaliana; printed as HEV(Hyp)SG(Hyp)NPISN; numbers count on: the 12-residue peptide; CLE44 encodes the same peptide; also called wild type TDIF; wtTDIF; source: synthetic peptide (peptide 2.0)
As for B1, the “fold lower binding than wild-type ecdTDR” value with ecdTDR W353A mutant is 8.4 fold. Besides, the binding result with ecdTDR W325A mutant and with ecdTDR S187A mutant was “binds” each time.
